Article doi:10.1101/2022.02.15.480544 (bioRxiv, 2022)

Molecular target: the molecule itself
Assay: mass photometry

Row | Protein | stoichiometry N
1 | Bacillus subtilis RecA, wild type, hexa-histidine fusion (natural protein, B. subtilis, UniProt P16971 11-348, looked up) ALKQIEKQFGKGSIMKLGEKTDTRISTVPSGSLALDTALGIGGYPRGRIIEVYGPESSGKTTVALHAIAEVQQQGGQAAFIDAEHALDPVYAQKLGVNIEELLLSQPDTGEQALEIAEALVRSGAVDIVVVDSVAALVPKAEIEGDMGDSHVGLQARLMSQALRKLSGAINKSKTIAIFINQIREKVGVMFGNPETTPGGRALKFYSSVRLEVRRAEQLKQGNDVMGNKTKIKVVKNKVAPPFRTAEVDIMYGEGISKEGEIIDLGTELDIVQKSGSWYSYEEERLGQGRENAKQFLKENKDIMLMIQEQIREHYGLDNNGVVQQQAEETQEELEFEE | 2
2 | Bacillus subtilis RecA K70R (Walker A mutant, no ATPase activity), hexa-histidine fusion (natural protein, B. subtilis, UniProt P16971 11-348, looked up) ALKQIEKQFGKGSIMKLGEKTDTRISTVPSGSLALDTALGIGGYPRGRIIEVYGPESSGRTTVALHAIAEVQQQGGQAAFIDAEHALDPVYAQKLGVNIEELLLSQPDTGEQALEIAEALVRSGAVDIVVVDSVAALVPKAEIEGDMGDSHVGLQARLMSQALRKLSGAINKSKTIAIFINQIREKVGVMFGNPETTPGGRALKFYSSVRLEVRRAEQLKQGNDVMGNKTKIKVVKNKVAPPFRTAEVDIMYGEGISKEGEIIDLGTELDIVQKSGSWYSYEEERLGQGRENAKQFLKENKDIMLMIQEQIREHYGLDNNGVVQQQAEETQEELEFEE | 2
3 | Bacillus subtilis RecA K70A (Walker A mutant, lowered ATP binding), hexa-histidine fusion (natural protein, B. subtilis, UniProt P16971 11-348, looked up) ALKQIEKQFGKGSIMKLGEKTDTRISTVPSGSLALDTALGIGGYPRGRIIEVYGPESSGATTVALHAIAEVQQQGGQAAFIDAEHALDPVYAQKLGVNIEELLLSQPDTGEQALEIAEALVRSGAVDIVVVDSVAALVPKAEIEGDMGDSHVGLQARLMSQALRKLSGAINKSKTIAIFINQIREKVGVMFGNPETTPGGRALKFYSSVRLEVRRAEQLKQGNDVMGNKTKIKVVKNKVAPPFRTAEVDIMYGEGISKEGEIIDLGTELDIVQKSGSWYSYEEERLGQGRENAKQFLKENKDIMLMIQEQIREHYGLDNNGVVQQQAEETQEELEFEE | 2
